# Experimental data as given in paper PMC5595344, “Interaction of the cyclic-di-GMP binding protein FimX and the Type 4 pilus assembly ATPase promotes pilus assembly” (PLoS Pathogens, 2017).
# Columns and labels:
# FimX = target: T1, FimX (Pseudomonas aeruginosa, UniProt Q9HUK6); assay: surface plasmon resonance (BIAcore T100), FimX immobilized on CM5 chip; type: binding
# T1 construct: dimer in solution (ca. 150 kDa by SEC)
# PilB = PilB (Pseudomonas aeruginosa, UniProt P22608); conditions: 1 mM ATP; minimal activity
# [1] = target: the molecule itself; assay: SEC; preparative SEC after affinity purification; Superdex 200 Increase, 25 mM Tris pH 8.0, 250 mM NaCl, 5 mM MgCl2, 5 mM β-mercaptoethanol
# [2] = target: the molecule itself; assay: SEC; Superdex 200 10/300; 50 μM hexameric PilB and 50 μM dimeric FimX or FimX(AAA), 30 min at RT, 25 mM Tris pH 8, 150 mM NaCl, 5 mM MgCl2, 500 μM c-di-GMP; each protein also run alone; fractions on SDS-PAGE
molecule,measurement,setting,value
Nc1nc2c(ncn2[C@@H]2O[C@@H]3CO[P@](=O)(O)O[C@H]4[C@@H](O)[C@H](n5cnc6c(=O)[nH]c(N)nc65)O[C@@H]4CO[P@](=O)(O)O[C@H]3[C@H]2O)c(=O)[nH]1 [c-di-GMP],Kd,FimX,88 ± 5.6 nM
Nc1ncnc2c1ncn2[C@@H]1O[C@H](COP(=O)(O)OP(=O)(O)OP(=O)(O)O)[C@@H](O)[C@H]1O [ATP],ATPase activity,PilB,PilB shows minimal ATPase activity in vitro that is not altered by addition of FimX
"10XHis-MBP tagged recombinant PilT (natural protein, also called hexameric PilT; source: E. coli BL21(DE3), purified (Ni-NTA, amylose resin, SEC)) MDITELLAFSAKQGASDLHLSAGLPPMIRVDGDVRRINLPPLEHKQVHALIYDIMNDKQRKDFEEFLETDFSFEVPGVARFRVNAFNQNRGAGAVFRTIPSKVLTMEELGMGEVFKRVSDVPRGLVLVTGPTGSGKSTTLAAMLDYLNNTKYHHILTIEDPIEFVHESKKCLVNQREVHRDTLGFSEALRSALREDPDIILVGEMRDLETIRLALTAAETGHLVFGTLHTTSAAKTIDRVVDVFPAEEKAMVRSMLSESLQSVISQTLIKKIGGGRVAAHEIMIGTPAIRNLIREDKVAQMYSAIQTGGSLGMQTLDMCLKGLVAKGLISRENAREKAKIPENF",stoichiometry N,[1],6
"10XHis-MBP tagged recombinant PilB (natural protein, also called hexameric PilB; purified PilB; source: E. coli BL21(DE3), purified (Ni-NTA, amylose resin, SEC)) MNDSIQLSGLSRQLVQANLLDEKTAVQAQAQAQRNKLSLVTHLVQSKLVSGLALAELSAEQFGIAYCDLNSLDKESFPRDAISEKLVRQHRVIPLWRRGNKLFVGISDPANHQAINDVQFSTGLTTEAILVEDDKLGLAIDKLFESATDGLAGLDDVDLEGLDIGSADKSTQEDASAEADDAPVVRFVNKMLLDAIKGGSSDLHFEPYEKIYRVRFRTDGMLHEVAKPPIQLASRISARLKVMAGLDISERRKPQDGRIKMRVSKTKSIDFRVNTLPTLWGEKIVMRILDSSSAQMGIDALGYEEDQKELYLAALKQPQGMILVTGPTGSGKTVSLYTGLNILNTTDINISTAEDPVEINLEGINQVNVNPRQGMDFSQALRAFLRQDPDVIMVGEIRDLETAEIAIKAAQTGHMVMSTLHTNSAAETLTRLLNMGVPAFNLATSVNLIIAQRLARKLCSHCKKEHEVPRETLLHEGFPEDKIGTFKLYSPVGCDHCKNGYKGRVGIYEVVKNTPALQRIIMEEGNSIEIAEQARKEGFNDLRTSGLLKAMQGITSLEEVNRVTKD",stoichiometry N,[1],6
"6X-His tagged FimX (natural protein, also called dimeric FimX; purified FimX; source: purified as 6X-His tagged protein as described previously [17]) MAIEKKTIRLLILEDSQNEAERLVSLFRNAGHATRVHRLTSPEDLAETLQQSWDLLIAAPTSECLEPGEALATLRRQSRDIPFIQLVADNSSDAITDALMLGAQDALPQGEDERLVLVANRELAGLAERRARRAAELALREAEKRCQLLLDSSVDAITYVHDGMHIYANRSYMALFGYEDAEELEGLPVIDLIASCDQGAFKDFLKGYQNDQRQTELVCTGVKLDGQEFKARISLSAATYDGEPCIQVVIRGEVDNAELEEKLREVSSQDPVTGLYNRSHFLDLMDAAVQQAVTARKPSTLAYIHLNGYPSLQADHGLSGIDLLLGQLAGLMREQFGEEADLARFGDSIFAALFKGKTPEQAQAALQRLLKKVENHLFELNGRSAQATLSIGVAGLDEKTAKAQDVMNRAHRCADDAARKGGSQIKQYNPAEELAAAAQRGDVIAILQQALETNSFRLLFQPVISLRGDSHENYEVLLRLLNPQGQEVPPAEFLHAAKEAGLAEKIDRWVILNSIKLLAEHRAKGHQTKLFVHLSSASLQDPGLLPWLGVALKAARLPPESLVFQISEADATSYLKQAKQLTQGLATLHCQAAISQFGCSLNPFNALKHLTVQFIKIDGSFVQDLNQVENQEILKGLIAELHEQQKLSIVPFVESASVLATLWQAGATYIQGYYLQGPSQAMDYDFSSGDE",stoichiometry N,[2],2
